# Measured values reported in US20150344540A1, “NOVEL GLP-1 RECEPTOR AGONISTS WITH CHOLESTEROL EFFLUX ACTIVITY” (NOVO NORDISK A/S, priority 2012, published 2015).
# Where no end group is shown, it is not given here. [ ]: non-standard residue; d: D form. Aib = CC(C)(N)C(=O)O
# B1: [Aib8,Glu23,Val25,Glu34,Lys35,Val36,Lys37]-GLP-1-(7-37)-peptidyl-Glu-Lys amide (peptide)
# peptide: H[Aib]EGTFTSDVSSYLEGEAVKEFIAWLVEKVKEK-NH2
# modifications: N-terminus assumed
# SMILES: CC[C@H](C)[C@H](NC(=O)[C@H](Cc1ccccc1)NC(=O)[C@H](CCC(=O)O)NC(=O)[C@H](CCCCN)NC(=O)[C@@H](NC(=O)[C@H](C)NC(=O)[C@H](CCC(=O)O)NC(=O)CNC(=O)[C@H](CCC(=O)O)NC(=O)[C@H](CC(C)C)NC(=O)[C@H](Cc1ccc(O)cc1)NC(=O)[C@H](CO)NC(=O)[C@H](CO)NC(=O)[C@@H](NC(=O)[C@H](CC(=O)O)NC(=O)[C@H](CO)NC(=O)[C@@H](NC(=O)[C@H](Cc1ccccc1)NC(=O)[C@@H](NC(=O)CNC(=O)[C@H](CCC(=O)O)NC(=O)C(C)(C)NC(=O)[C@@H](N)Cc1c[nH]cn1)[C@@H](C)O)[C@@H](C)O)C(C)C)C(C)C)C(=O)N[C@@H](C)C(=O)N[C@@H](Cc1c[nH]c2ccccc12)C(=O)N[C@@H](CC(C)C)C(=O)N[C@H](C(=O)N[C@@H](CCC(=O)O)C(=O)N[C@@H](CCCCN)C(=O)N[C@H](C(=O)N[C@@H](CCCCN)C(=O)N[C@@H](CCC(=O)O)C(=O)N[C@@H](CCCCN)C(N)=O)C(C)C)C(C)C
# B2: [Aib8,Glu23,Glu34,Lys35,Aib36,Lys37]-GLP-1-(7-37)-peptidyl-Glu-Phe-Leu amide (peptide)
# peptide: H[Aib]EGTFTSDVSSYLEGEAAKEFIAWLVEK[Aib]KEFL-NH2
# modifications: N-terminus assumed
# SMILES: CC[C@H](C)[C@H](NC(=O)[C@H](Cc1ccccc1)NC(=O)[C@H](CCC(=O)O)NC(=O)[C@H](CCCCN)NC(=O)[C@H](C)NC(=O)[C@H](C)NC(=O)[C@H](CCC(=O)O)NC(=O)CNC(=O)[C@H](CCC(=O)O)NC(=O)[C@H](CC(C)C)NC(=O)[C@H](Cc1ccc(O)cc1)NC(=O)[C@H](CO)NC(=O)[C@H](CO)NC(=O)[C@@H](NC(=O)[C@H](CC(=O)O)NC(=O)[C@H](CO)NC(=O)[C@@H](NC(=O)[C@H](Cc1ccccc1)NC(=O)[C@@H](NC(=O)CNC(=O)[C@H](CCC(=O)O)NC(=O)C(C)(C)NC(=O)[C@@H](N)Cc1c[nH]cn1)[C@@H](C)O)[C@@H](C)O)C(C)C)C(=O)N[C@@H](C)C(=O)N[C@@H](Cc1c[nH]c2ccccc12)C(=O)N[C@@H](CC(C)C)C(=O)N[C@H](C(=O)N[C@@H](CCC(=O)O)C(=O)N[C@@H](CCCCN)C(=O)NC(C)(C)C(=O)N[C@@H](CCCCN)C(=O)N[C@@H](CCC(=O)O)C(=O)N[C@@H](Cc1ccccc1)C(=O)N[C@@H](CC(C)C)C(N)=O)C(C)C
# B3: [Aib8,Glu22,Glu23,Val25,Glu34,Lys35,Val36,Lys37]-GLP-1-(7-37)-peptidyl-Glu-Leu-Leu amide (peptide)
# peptide: H[Aib]EGTFTSDVSSYLEEEAVKEFIAWLVEKVKELL-NH2
# modifications: N-terminus assumed
# SMILES: CC[C@H](C)[C@H](NC(=O)[C@H](Cc1ccccc1)NC(=O)[C@H](CCC(=O)O)NC(=O)[C@H](CCCCN)NC(=O)[C@@H](NC(=O)[C@H](C)NC(=O)[C@H](CCC(=O)O)NC(=O)[C@H](CCC(=O)O)NC(=O)[C@H](CCC(=O)O)NC(=O)[C@H](CC(C)C)NC(=O)[C@H](Cc1ccc(O)cc1)NC(=O)[C@H](CO)NC(=O)[C@H](CO)NC(=O)[C@@H](NC(=O)[C@H](CC(=O)O)NC(=O)[C@H](CO)NC(=O)[C@@H](NC(=O)[C@H](Cc1ccccc1)NC(=O)[C@@H](NC(=O)CNC(=O)[C@H](CCC(=O)O)NC(=O)C(C)(C)NC(=O)[C@@H](N)Cc1c[nH]cn1)[C@@H](C)O)[C@@H](C)O)C(C)C)C(C)C)C(=O)N[C@@H](C)C(=O)N[C@@H](Cc1c[nH]c2ccccc12)C(=O)N[C@@H](CC(C)C)C(=O)N[C@H](C(=O)N[C@@H](CCC(=O)O)C(=O)N[C@@H](CCCCN)C(=O)N[C@H](C(=O)N[C@@H](CCCCN)C(=O)N[C@@H](CCC(=O)O)C(=O)N[C@@H](CC(C)C)C(=O)N[C@@H](CC(C)C)C(N)=O)C(C)C)C(C)C
# B4: [Aib8,Glu23,Val25,Glu30,Glu34,Lys35,Val36,Lys37]-GLP-1-(7-37)-peptidyl-Glu-Lys-Leu amide (peptide)
# peptide: H[Aib]EGTFTSDVSSYLEGEAVKEFIEWLVEKVKEKL-NH2
# modifications: N-terminus assumed
# SMILES: CC[C@H](C)[C@H](NC(=O)[C@H](Cc1ccccc1)NC(=O)[C@H](CCC(=O)O)NC(=O)[C@H](CCCCN)NC(=O)[C@@H](NC(=O)[C@H](C)NC(=O)[C@H](CCC(=O)O)NC(=O)CNC(=O)[C@H](CCC(=O)O)NC(=O)[C@H](CC(C)C)NC(=O)[C@H](Cc1ccc(O)cc1)NC(=O)[C@H](CO)NC(=O)[C@H](CO)NC(=O)[C@@H](NC(=O)[C@H](CC(=O)O)NC(=O)[C@H](CO)NC(=O)[C@@H](NC(=O)[C@H](Cc1ccccc1)NC(=O)[C@@H](NC(=O)CNC(=O)[C@H](CCC(=O)O)NC(=O)C(C)(C)NC(=O)[C@@H](N)Cc1c[nH]cn1)[C@@H](C)O)[C@@H](C)O)C(C)C)C(C)C)C(=O)N[C@@H](CCC(=O)O)C(=O)N[C@@H](Cc1c[nH]c2ccccc12)C(=O)N[C@@H](CC(C)C)C(=O)N[C@H](C(=O)N[C@@H](CCC(=O)O)C(=O)N[C@@H](CCCCN)C(=O)N[C@H](C(=O)N[C@@H](CCCCN)C(=O)N[C@@H](CCC(=O)O)C(=O)N[C@@H](CCCCN)C(=O)N[C@@H](CC(C)C)C(N)=O)C(C)C)C(C)C
# B5: [Aib8,Glu23,Val25,Glu34,Lys35,Gly36,Lys37]-GLP-1-(7-37)-peptidyl-Glu-Phe-Leu amide (peptide)
# peptide: H[Aib]EGTFTSDVSSYLEGEAVKEFIAWLVEKGKEFL-NH2
# modifications: N-terminus assumed
# SMILES: CC[C@H](C)[C@H](NC(=O)[C@H](Cc1ccccc1)NC(=O)[C@H](CCC(=O)O)NC(=O)[C@H](CCCCN)NC(=O)[C@@H](NC(=O)[C@H](C)NC(=O)[C@H](CCC(=O)O)NC(=O)CNC(=O)[C@H](CCC(=O)O)NC(=O)[C@H](CC(C)C)NC(=O)[C@H](Cc1ccc(O)cc1)NC(=O)[C@H](CO)NC(=O)[C@H](CO)NC(=O)[C@@H](NC(=O)[C@H](CC(=O)O)NC(=O)[C@H](CO)NC(=O)[C@@H](NC(=O)[C@H](Cc1ccccc1)NC(=O)[C@@H](NC(=O)CNC(=O)[C@H](CCC(=O)O)NC(=O)C(C)(C)NC(=O)[C@@H](N)Cc1c[nH]cn1)[C@@H](C)O)[C@@H](C)O)C(C)C)C(C)C)C(=O)N[C@@H](C)C(=O)N[C@@H](Cc1c[nH]c2ccccc12)C(=O)N[C@@H](CC(C)C)C(=O)N[C@H](C(=O)N[C@@H](CCC(=O)O)C(=O)N[C@@H](CCCCN)C(=O)NCC(=O)N[C@@H](CCCCN)C(=O)N[C@@H](CCC(=O)O)C(=O)N[C@@H](Cc1ccccc1)C(=O)N[C@@H](CC(C)C)C(N)=O)C(C)C
# B6: [Aib8,Glu23,Val25,Glu34,Lys35,Val36,Lys37]-GLP-1-(7-37)-peptidyl-Asp-Phe-Leu amide (peptide)
# peptide: H[Aib]EGTFTSDVSSYLEGEAVKEFIAWLVEKVKDFL-NH2
# modifications: N-terminus assumed
# SMILES: CC[C@H](C)[C@H](NC(=O)[C@H](Cc1ccccc1)NC(=O)[C@H](CCC(=O)O)NC(=O)[C@H](CCCCN)NC(=O)[C@@H](NC(=O)[C@H](C)NC(=O)[C@H](CCC(=O)O)NC(=O)CNC(=O)[C@H](CCC(=O)O)NC(=O)[C@H](CC(C)C)NC(=O)[C@H](Cc1ccc(O)cc1)NC(=O)[C@H](CO)NC(=O)[C@H](CO)NC(=O)[C@@H](NC(=O)[C@H](CC(=O)O)NC(=O)[C@H](CO)NC(=O)[C@@H](NC(=O)[C@H](Cc1ccccc1)NC(=O)[C@@H](NC(=O)CNC(=O)[C@H](CCC(=O)O)NC(=O)C(C)(C)NC(=O)[C@@H](N)Cc1c[nH]cn1)[C@@H](C)O)[C@@H](C)O)C(C)C)C(C)C)C(=O)N[C@@H](C)C(=O)N[C@@H](Cc1c[nH]c2ccccc12)C(=O)N[C@@H](CC(C)C)C(=O)N[C@H](C(=O)N[C@@H](CCC(=O)O)C(=O)N[C@@H](CCCCN)C(=O)N[C@H](C(=O)N[C@@H](CCCCN)C(=O)N[C@@H](CC(=O)O)C(=O)N[C@@H](Cc1ccccc1)C(=O)N[C@@H](CC(C)C)C(N)=O)C(C)C)C(C)C
# B7: [Aib8,Val25,Gln27,Gln34,Lys35,Aib36,Lys37]-GLP-1-(7-37)-peptidyl-Gln-Phe-Leu amide (peptide)
# peptide: H[Aib]EGTFTSDVSSYLEGQAVKQFIAWLVQK[Aib]KQFL-NH2
# modifications: N-terminus assumed
# SMILES: CC[C@H](C)[C@H](NC(=O)[C@H](Cc1ccccc1)NC(=O)[C@H](CCC(N)=O)NC(=O)[C@H](CCCCN)NC(=O)[C@@H](NC(=O)[C@H](C)NC(=O)[C@H](CCC(N)=O)NC(=O)CNC(=O)[C@H](CCC(=O)O)NC(=O)[C@H](CC(C)C)NC(=O)[C@H](Cc1ccc(O)cc1)NC(=O)[C@H](CO)NC(=O)[C@H](CO)NC(=O)[C@@H](NC(=O)[C@H](CC(=O)O)NC(=O)[C@H](CO)NC(=O)[C@@H](NC(=O)[C@H](Cc1ccccc1)NC(=O)[C@@H](NC(=O)CNC(=O)[C@H](CCC(=O)O)NC(=O)C(C)(C)NC(=O)[C@@H](N)Cc1c[nH]cn1)[C@@H](C)O)[C@@H](C)O)C(C)C)C(C)C)C(=O)N[C@@H](C)C(=O)N[C@@H](Cc1c[nH]c2ccccc12)C(=O)N[C@@H](CC(C)C)C(=O)N[C@H](C(=O)N[C@@H](CCC(N)=O)C(=O)N[C@@H](CCCCN)C(=O)NC(C)(C)C(=O)N[C@@H](CCCCN)C(=O)N[C@@H](CCC(N)=O)C(=O)N[C@@H](Cc1ccccc1)C(=O)N[C@@H](CC(C)C)C(N)=O)C(C)C
# Target: human GLP-1 receptor (human, UniProt P43220)
# Assay: cell-based or functional assay
Binder,"CRE luciferase EC50, 0% HSA [nM]","CRE luciferase EC50, 1% HSA [nM]"
B1,0.043,0.014
B2,0.163,0.143
"HAEGTFTSDVSSYLEGQAAKEFIAWLVEKVKEFL-NH2 [[Glu34,Lys35,Val36,Lys37]-GLP-1-(7-37)-peptidyl-Glu-Phe-Leu amide]",0.116,0.023
"HAEGTFTSDVSSYLEGQKAKEFIAWLVEGVKEFL-NH2 [[Lys24,Glu34,Val36,Lys37]-GLP-1-(7-37)-peptidyl-Glu-Phe-Leu amide]",0.702,0.112
B3,0.439,0.11
"HAEGTFTSDVSSYLEGQAAKEFIAWLVEKVKEHL-NH2 [[Glu34,Lys35,Val36,Lys37]-GLP-1-(7-37)-peptidyl-Glu-His-Leu amide]",0.04,0.01
"HAEGTFTSDVSSYLEGQAAKEFIAWLVEKVKEFLE-NH2 [[Glu34,Lys35,Val36,Lys37]-GLP-1-(7-37)-peptidyl-Glu-Phe-Leu-Glu amide]",0.114,0.028
B4,0.163,0.039
B5,0.034,0.007
"HGEGTFTSDVSSYLEEEAVKEFIAWLVEKVKEKL-NH2 [[Gly8,Glu22,Glu23,Val25,Glu34,Lys35,Val36,Lys37]-GLP-1-(7-37)-peptidyl-Glu-Lys-Leu amide]",0.3,0.076
B6,0.323,0.128
B7,0.601,0.229
